According to publication PMC12038257, “The transcription factor MdWRKY9 is involved in jasmonic acid-mediated salt stress tolerance in apple”:
Changes are numbered by the printed parent chain.

B1: MdSOS2 W-box W3 (-303), probe 2 (dsDNA)
DNA 1: TATGAAAACTGGAACTTGGGTTGACTGAATTTACTTCTAATTTCAT
DNA 2: ATGAAATTAGAAGTAAATTCAGTCAACCCAAGTTCCAGTTTTCATA
B2: MdSOS2 W3 mutant probe (dsDNA)
DNA 1: B1 DNA 1 with G23T, A24C
DNA 2: B1 DNA 2 with T23G, C24A
B3: MdNHX1 W-box W1 (-1255) (dsDNA)
DNA 1: ATCATATTTTTACACTAAAAAGTCAATCTTGGTACTATTTATCTTA
DNA 2: TAAGATAAATAGTACCAAGATTGACTTTTTAGTGTAAAAATATGAT
B4: MdNHX1 W1 mutant probe (dsDNA)
DNA 1: B3 DNA 1 with T23G, C24A
DNA 2: B3 DNA 2 with G23T, A24C
B5: MdSOS3 W-box probe 1 (W4, -127) (dsDNA)
DNA 1: TAGTGAAGCACATCCGCTCTAGTCAAAGCAGCTACGCTCACGCGTG
DNA 2: CACGCGTGAGCGTAGCTGCTTTGACTAGAGCGGATGTGCTTCACTA
B6: MdSOS2 W-box W2 (-149), probe 1 (dsDNA)
DNA 1: TCACAGCCACGTGAATTGAATTGACCAATTTTCCAATTCTGTTTAT
DNA 2: ATAAACAGAATTGGAAAATTGGTCAATTCAATTCACGTGGCTGTGA
B7: MdSOS2 W2 mutant probe (dsDNA)
DNA 1: B6 DNA 1 with G23T, A24C
DNA 2: B6 DNA 2 with T23G, C24A

Biological target: MdWRKY9 (Malus domestica (apple)?, UniProt D9ZJG3 1-520)
Assay: EMSA; EMSA buffer, salt, pH and temperature not given (refers to earlier method, ref. 35); GST added to equalize protein in JAZ assays
Settings: protein: recombinant; tags: His (pET32a(+)); label: 3' biotin; blunt

Chain of MdWRKY9 (D9ZJG3 entry or part of it): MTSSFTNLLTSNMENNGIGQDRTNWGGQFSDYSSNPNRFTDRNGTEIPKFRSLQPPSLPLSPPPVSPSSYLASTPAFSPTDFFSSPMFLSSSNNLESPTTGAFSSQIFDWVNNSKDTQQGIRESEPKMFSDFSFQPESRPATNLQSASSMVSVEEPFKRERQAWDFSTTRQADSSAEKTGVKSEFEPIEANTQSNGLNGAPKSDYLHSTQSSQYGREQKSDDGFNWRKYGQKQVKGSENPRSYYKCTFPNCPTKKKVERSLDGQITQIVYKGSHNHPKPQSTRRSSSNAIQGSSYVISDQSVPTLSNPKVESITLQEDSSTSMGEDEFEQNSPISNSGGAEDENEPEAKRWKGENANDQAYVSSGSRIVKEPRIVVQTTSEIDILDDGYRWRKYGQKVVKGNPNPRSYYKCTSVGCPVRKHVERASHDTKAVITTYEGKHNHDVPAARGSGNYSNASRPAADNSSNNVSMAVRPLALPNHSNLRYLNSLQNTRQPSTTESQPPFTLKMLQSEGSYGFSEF

Row | Binder | binding result
1 | B1 | binds
2 | B2 | no binding
3 | B3 | binds
4 | B4 | no binding
5 | B5 | no binding
6 | B6 | binds
7 | B7 | no binding
